Reference: article PMC3766439 (Clinical cancer research : an official journal of the …, 2013)

Molecular target: Nus-Tag EGFRvIII ECD deletion mutant CT 292–346 (Homo sapiens, UniProt P00533)
Test: ELISA

B1: D2C7 monoclonal antibody (antibody, V domains shown)
VH: EVHLQQSGPELEKPGASVKISCKASGYSFTGYNMNWVKQSNGKSLEWIGNIDPYYGDTDYDQKFKGKATLTADKSSNTVYMQLQSLTSEDSAVYYCARGAHRDYYAMDYWGQGTSVTVSS
VL: DIQMTQSPASLSASVGETVTITCRTSENIYIYLAWYQQKQGKSPQLLVYNAKTLAEGVPSRFSGSGSGTQFSLKINGLQPEDFGGYYCQQHYGTPYTFGGGTKLEKK
- binding result: binds
